Experiments:
[1] = system: SUMO*-GFP (engineered SUMO 2F4, Smt3 R64T R71E, fused to GFP)
[2] = system: SMT3-GFP (wild-type SUMO-GFP fusion) [SUMO: Q12306]
Sequence of SMT3-GFP (wild-type SUMO-GFP fusion) [SUMO: Q12306] (Q12306 whole entry, looked up, the tested form may be a part): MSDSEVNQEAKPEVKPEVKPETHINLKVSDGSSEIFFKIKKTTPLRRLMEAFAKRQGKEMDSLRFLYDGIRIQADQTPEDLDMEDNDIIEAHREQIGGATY

Sequence of SUMO*-GFP (engineered SUMO 2F4, Smt3 R64T R71E, fused to GFP) (chain, as listed by the source R64T R71E): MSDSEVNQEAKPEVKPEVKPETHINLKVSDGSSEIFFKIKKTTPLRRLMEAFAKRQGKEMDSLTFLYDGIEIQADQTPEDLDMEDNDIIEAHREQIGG

For SUMO protease 2 (SENP2), the “in vitro cleavage reaction” value [1] was “Neither protease cleaved SUMO*” and the “in vitro cleavage (SDS-PAGE and anti-Smt3 Western blot)” value [2] was “wild-type SUMO (Smt3) is cleaved by ULP1 and SENP2 (SUMO protease 1 and 2) in vitro”.
